From PMC3795957 (Nature biotechnology, 2013) come the findings set out here.

By kon is commonly meant the rate constant with which the complex forms. A higher kon goes with fast association.

Where no end group is shown, it is not given here.

The experiment deals with T1, wild-type (WT Asp) peptide GEKKGNYVVTDH (also: biotin (site not given here)).
T1 chain: GEKKGNYVVTDH
Nature of the experiment: SPR. A general note: Surface plasmon resonance follows binding to a sensor surface in real time, without labels.

B1: humanized version of the 1i8i Fab (Parent) (Fab, V domains shown)
VH: EVQLVESGGGLVQPGGSLRLSCVTSGFTFRKFGMSWVRQAPGKGLEWVASISTGGYNTYYSDSVKGRFTISRDNSKNTLYLQMNSLRAEDTAVYYCTRGYSSTSYAMDYWGQGTLVTVSS
VL: DIVLTQSPATLSLSPGERATLSCMTSTDIDDDMNWYQQKPGQAPRLLISEGNTLRPGVPARFSGSGSGTDFTLTISSLEPEDFAVYYCLQSFNVPLTFGQGTKVEIK
Molecule B1 had a kon of 338000 M⁻¹ s⁻¹.
